US20050089926A1, “Ligand sensing fluorescent acetylcholinesterase for detection of organophosphate activity” (priority 2002, published 2005)
Residue numbers refer to the chain shown, from its start. Names may count otherwise. “And” between values parts separate entries of the source, which are not always exact repeats. Identical values can stand only once. Like-named read-outs stand apart in the source and are kept apart here.

What was measured:
[1] = test system: wild type and mutant mouse AChEs; assay: Acetylthiocholine hydrolysis kinetics (Ellman method); assay type: biochemical; conditions: means ± S.D.
Description: Assay of Catalytic Activity—The spectrophotometric method of Ellman was used (25), and kinetic constants for acetylthiocholine hydrolysis were determined by fitting the observed rates as described (26). Titration of active sites with known concentrations of the irreversible phosphorylating agent, MEPQ, was accomplished by the method of Levy and Ashani (27).

mouse AChE = assay: TFK+ inhibition, association rate from residual enzyme activity; assay type: biochemical; conditions: for TFK+ kon: unlabeled enzyme, from measurements of enzyme activity
Description: Trifluoroacetophenone Inhibition—Picomolar amounts of enzyme in 0.01% bovine serum albumin in 0.1 M sodium phosphate buffer, pH 7.0, were reacted with TFK^+ in the absence of substrate. Inhibition was monitored by measuring residual enzyme activity by removal of aliquots during the course of the reaction. Bimolecular rate constants of inhibition were determined by nonlinear fit of the data (28). ΔF=ΔFmax(Et+It+Kd−/(Et+It+Kd)^2−4 EtIt∫^0.5)(2Et)^−1 (Eq. 1)
(§1) TFK^+ binding to cysteine-substituted enzymes, both free and modified with acrylodan, was also examined (Table II). For E81C and E84C, the association rate constants (kon) for TFK^+ were obtained from measurements of enzyme activity. […] For acrylodan-labeled mutants, kon was measured from the time-dependent decrease of fluorescence signal (FIG. 3).

[2] = molecular target: T1, acrylodan-labeled E81C and E84C (Mus musculus, UniProt P21836, E115C); assay type: binding; conditions: acrylodan-conjugated E84C
T1 construct: made in house; host or cells: HEK293
Description: as §1

E81C and E84C AChEs [3] = assay: Edrophonium binding, stopped-flow tryptophan fluorescence quenching (koff/kon); set-up: species or system mouse; conditions: unlabeled mutant
Description: (§2) Association and dissociation rate constants of edrophonium and […] with E81C and E84C AChEs were determined from changes in the tryptophan fluorescence using a stopped-flow spectrophotometer as described previously (29). Time-dependent decreases in tryptophan fluorescence were observed upon excitation at 276 nm by means of a 305 nm emission cut-off filter.

E81C and E84C AChEs [4] = assay: BW284c51 binding, stopped-flow tryptophan fluorescence quenching (koff/kon); set-up: species or system mouse; conditions: unlabeled mutant
Description: as §2

[5] = molecular target: T2, acrylodan-labeled mouse AChE mutants (Mus musculus, UniProt P21836, E115C); conditions: edrophonium, tacrine or huperzine bound
T2 construct: made in house; host or cells: HEK293

[6] = test system: wild type and mutant mouse AChEs; conditions: data from Boyd et al. 2000, cited from earlier work; for Km / kcat: acetylthiocholine hydrolysis; for b: relative catalytic turnover of the ternary complex; for KSS: substrate inhibition or activation constant

B1: E84C (protein, UniProt P21836 32-614, looked up, variant E84C)
Acetylcholinesterase: EGREDPQLLVRVRGGQLRGIRLKAPGGPVSAFLGIPFAEPPVGSRRFMPPEPKRPWSGVLDATTFQNVCYQYVDTLYPGFEGTCMWNPNRELSEDCLYLNVWTPYPRPASPTPVLIWIYGGGFYSGAASLDVYDGRFLAQVEGAVLVSMNYRVGTFGFLALPGSREAPGNVGLLDQRLALQWVQENIAAFGGDPMSVTLFGESAGAASVGMHILSLPSRSLFHRAVLQSGTPNGPWATVSAGEARRRATLLARLVGCPPGGAGGNDTELIACLRTRPAQDLVDHEWHVLPQESIFRFSFVPVVDGDFLSDTPEALINTGDFQDLQVLVGVVKDEGSYFLVYGVPGFSKDNESLISRAQFLAGVRIGVPQASDLAAEAVVLHYTDWLHPEDPTHLRDAMSAVVGDHNVVCPVAQLAGRLAAQGARVYAYIFEHRASTLTWPLWMGVPHGYEIEFIFGLPLDPSLNYTTEERIFAQRLMKYWTNFARTGDPNDPRDSKSPQWPPYTTAAQQYVSLNLKPLEVRRGLRAQTCAFWNRFLPKLLSATDTLDEAERQWKAEFHRWSSYMVHWKNQFDHYSKQERCSDL
Km ([1]; acetylthiocholine hydrolysis): 190 ± 9 µM | kcat ([1]; acetylthiocholine hydrolysis): 1.9 ± 0.4 10^5/min | b ([1]; relative catalytic turnover of the ternary complex): 0.2 ± 0.05 | KSS ([1]; substrate inhibition or activation constant): 26 ± 2 mM | TFK+ kon (mouse AChE): 93 10^9M^−1min^−1 | TFK+ kon ratio to wild type (head is formula MATH:1) (mouse AChE; unlabeled mutant): 1.6 | reduction of kon of TFK+ by acrylodan conjugation compared with unconjugated E84C [2]: 7 fold | Edrophonium Kd ratio to wild type (head is formula MATH:2) (E81C and E84C AChEs [3]): 2 and 2.2 | BW284c51 Kd ratio to wild type (head is formula MATH:3) (E81C and E84C AChEs [4]): 18 | bathochromic shift upon inhibitor binding [5]: 33 nm

B2: A262C (protein, UniProt P21836 32-614, looked up, variant A262C)
Acetylcholinesterase: B1 Acetylcholinesterase with C84E, A262C
Km [6]: 59 ± 4 µM | kcat [6]: 1.6 ± 0.1 10^5/min | b [6]: 0.2 ± 0.04 | KSS [6]: 11 ± 3 mM

B3: Wild Type (protein, UniProt P21836 32-614, looked up)
Acetylcholinesterase: B1 Acetylcholinesterase with C84E
TFK+ kon (mouse AChE): 150 10^9M^−1min^−1 | Km [6]: 54 ± 16 µM | kcat [6]: 1.6 ± 0.4 10^5/min | b [6]: 0.2 ± 0.07 | KSS [6]: 14 ± 5 mM

B4: H287C (protein, UniProt P21836 32-614, looked up, variant H287C)
Acetylcholinesterase: B1 Acetylcholinesterase with C84E, H287C
Km [6]: 58 ± 7 µM | kcat [6]: 1.8 ± 0.2 10^5/min | b [6]: 0.2 ± 0.06 | KSS [6]: 12 ± 6 mM
